Laboratory results from US20260226190A1 (CITY OF HOPE, published 2026).

Assays:
BSA = biological target: T1, BSA (UniProt P02769 25-607); experiment: ELISA, BSA-coated control wells
T1 construct: Control coating in the ELISA; also called bovine serum albumin (control coating)
Method: (§1) Specificity and affinity of antigen binding was further evaluated by performing saturation binding on immobilized antigen in ELISA. Recombinant human PSCA-mouse Fc fusion protein (hPSCA-mFc, produced in house) was immobilized (1 μg/mL, 100 µL/well in PBS overnight at 4° C.). Serial dilutions of anti-PSCA scFvFc's ([…]) were incubated for 1 h at RT and after washing bound antibody fragments were detected using goat anti-human IgG-Fc-AP antibody (1:10,000) and pNPP substrate (alkaline phosphatase yellow, liquid substrate, Sigma-Aldrich P7998). The enzymatic reaction was stopped using 50 μL 2M NaOH and absorbance was red at 405 nm in an SpectraMax M2 microplane reader. Specific binding was fitted using the “one site-specific binding” equation to determine the Kd (ligand concentration that binds half the antigen sites at equilibrium) and Bₘₐₓ (maximum number of binding sites).
The purified proteins were tested for specific binding to recombinant antigen by ELISA on immobilized human PSCA-mouse Fc protein. Dose-dependent binding was detected for wells coated with hPSCA-mFc and no non-specific binding was detected in BSA coated control wells.

[1] = biological target: T2, Human prostate stem cell antigen (PSCA) expressed on RM9-hPSCA murine prostate cancer cells (human, UniProt O43653 12-83); experiment: saturation binding on PSCA-expressing cells
T2 construct: RM9 cells transduced with human PSCA; also called RM9-hPSCA cells
T2 sequence: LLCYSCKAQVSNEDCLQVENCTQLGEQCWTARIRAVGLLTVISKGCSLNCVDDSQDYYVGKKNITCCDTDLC
Excerpt: (§2) The resulting saturation binding curves were fitted (one-site specific binding, GraphPad Prism) to determine Kd and Bₘₐₓ from four independent experiments. […] (FIG. 6)
Two novel anti-PSCA scFv-Fc variants (A2SM, A2aG) were designed, produced, and purified (FIG. 1). SDS-PAGE and SEC analysis confirmed purity and dimeric self-assembly. […] A2SM was successfully radiolabeled with ⁸⁹Zr (efficiency: >90%, purity >99%, n=2) resulting in a specific activity of ~0.17 MBq/μg (FIG. 2). […] Therefore, the novel A2SM could deliver a higher cytotoxic dose to the tumor while the liver remains the dose-limiting organ.

[2] = biological target: T3, Recombinant human PSCA-mouse Fc fusion protein (human; mouse, UniProt O43653 12-83, limits assumed); experiment: ELISA saturation binding on immobilized hPSCA-mFc, one site-specific binding fit (EC50=Kd), n=3
T3 construct: Those marks are not visible here; also called hPSCA-mFc; human PSCA-murine Fc fusion protein; not shown: mouse Fc
T3 sequence: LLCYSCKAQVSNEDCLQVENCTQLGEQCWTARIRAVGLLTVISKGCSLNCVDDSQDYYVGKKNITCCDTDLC
Method: as §1

[3] = biological target: T2, Human prostate stem cell antigen (PSCA) …; experiment: flow cytometry saturation binding on RM9-hPSCA cells, one-site specific binding fit, four independent experiments
Excerpt: as §2

[4] = biological target: T3, Recombinant human PSCA-mouse Fc fusion …; experiment: ELISA saturation binding on hPSCA-mFc (value given for the 'previous' variant)

T1 sequence (P02769 25-607 limits assumed): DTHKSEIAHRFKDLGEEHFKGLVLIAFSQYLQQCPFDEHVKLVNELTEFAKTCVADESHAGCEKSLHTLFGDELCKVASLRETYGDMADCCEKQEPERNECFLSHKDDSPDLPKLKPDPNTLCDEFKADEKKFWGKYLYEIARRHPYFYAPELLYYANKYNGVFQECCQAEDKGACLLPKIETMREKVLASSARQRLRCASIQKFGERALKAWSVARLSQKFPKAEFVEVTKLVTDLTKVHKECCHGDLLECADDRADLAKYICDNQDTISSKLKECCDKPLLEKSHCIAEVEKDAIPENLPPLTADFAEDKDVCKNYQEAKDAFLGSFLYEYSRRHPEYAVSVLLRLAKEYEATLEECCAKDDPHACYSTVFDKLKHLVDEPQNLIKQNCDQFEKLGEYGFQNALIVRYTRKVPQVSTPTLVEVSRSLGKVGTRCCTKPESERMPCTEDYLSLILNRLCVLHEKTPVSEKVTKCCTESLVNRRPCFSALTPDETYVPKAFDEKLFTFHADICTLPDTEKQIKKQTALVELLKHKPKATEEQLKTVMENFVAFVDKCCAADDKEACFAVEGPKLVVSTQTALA

B1: A2scFv-Fc2 SM (anti-PSCA A2 scFv-Fc2 single mutant, H310A, with K322A) (Fc fusion)
chain: EVQLVESGGGLVQPGGSLRLSCAASGFNIKDYYIHWVRQAPGKGLEWVAWIDPEYGDSEFVPKFQGRATMSADTSKNTAYLQMNSLRAEDTAVYYCKTGGFWGRGTLVTVSSGGGGSGGGGSGGSAQDIQLTQSPSSLSASVGDRVTITCSASSSVRFIHWYQQKPGKAPKRLIYDTSKLASGVPSRFSGSGSGTDFTLTISSLQPEDFATYYCQQWGSSPFTFGQGTKVEIKVECPPCPAPPVAGPSVFLFPPKPKDTLMISRTPEVTCVVVDVSHEDPEVQFNWYVDGMEVHNAKTKPREEQFNSTFRVVSVLTVVAQDWLNGKEYKCAVSNKGLPAPIEKTISKTKGQPREPQVYTLPPSREEMTKNQVSLTCLVKGFYPSDIAVEWESNGQPENNYKTTPPMLDSDGSFFLYSKLTVDKSRWQQGNVFSCSVMHEALHNHYTQKSLSLSPGK
notes: Homodimeric scFv-Fc of about 110 kDa, glycosylated, made in FreeStyle 293-F cells; I could not check whether that entry includes a leader peptide from the pSecTag2A vector; also called A2SM; A2scFv-Fc2-SM w/K322A
binding result (BSA): no binding
Kd [1]: 3.3 nM
Kd [2]: 0.59 nM
Kd [3]: 3.74 nM

B2: A2scFv-Fc2 DM (anti-PSCA A2 scFv-Fc2 double mutant, H310A/H435Q) (Fc fusion)
chain: EVQLVESGGGLVQPGGSLRLSCAASGFNIKDYYIHWVRQAPGKGLEWVAWIDPEYGDSEFVPKFQGRATMSADTSKNTAYLQMNSLRAEDTAVYYCKTGGFWGRGTLVTVSSGGGGSGGGGSGGSAQDIQLTQSPSSLSASVGDRVTITCSASSSVRFIHWYQQKPGKAPKRLIYDTSKLASGVPSRFSGSGSGTDFTLTISSLQPEDFATYYCQQWGSSPFTFGQGTKVEIKVECPPCPAPPVAGPSVFLFPPKPKDTLMISRTPEVTCVVVDVSHEDPEVQFNWYVDGMEVHNAKTKPREEQFNSTFRVVSVLTVVAQDWLNGKEYKCKVSNKGLPAPIEKTISKTKGQPREPQVYTLPPSREEMTKNQVSLTCLVKGFYPSDIAVEWESNGQPENNYKTTPPMLDSDGSFFLYSKLTVDKSRWQQGNVFSCSVMHEALHNQYTQKSLSLSPGK
Kd [4]: 0.8 nM

B3: A2scFv-Fc2 DMaG (anti-PSCA A2 scFv-Fc2 double mutant aglycosylated, H310A/H435Q, N297Q, with K322A) (Fc fusion)
chain: EVQLVESGGGLVQPGGSLRLSCAASGFNIKDYYIHWVRQAPGKGLEWVAWIDPEYGDSEFVPKFQGRATMSADTSKNTAYLQMNSLRAEDTAVYYCKTGGFWGRGTLVTVSSGGGGSGGGGSGGSAQDIQLTQSPSSLSASVGDRVTITCSASSSVRFIHWYQQKPGKAPKRLIYDTSKLASGVPSRFSGSGSGTDFTLTISSLQPEDFATYYCQQWGSSPFTFGQGTKVEIKVECPPCPAPPVAGPSVFLFPPKPKDTLMISRTPEVTCVVVDVSHEDPEVQFNWYVDGMEVHNAKTKPREEQFQSTFRVVSVLTVVAQDWLNGKEYKCAVSNKGLPAPIEKTISKTKGQPREPQVYTLPPSREEMTKNQVSLTCLVKGFYPSDIAVEWESNGQPENNYKTTPPMLDSDGSFFLYSKLTVDKSRWQQGNVFSCSVMHEALHNQYTQKSLSLSPGK
notes: I could not check whether that entry includes a leader peptide; also called A2DMaG; A2scFv-Fc2-DMaG w/K322A
binding result (BSA): no binding
Kd [1]: 3.1 nM
Kd [2]: 0.8 nM
Kd [3]: 3.28 nM

B4: A2scFv-Fc2 (anti-PSCA A2 scFv-Fc2 without FcRn-site mutations) (Fc fusion)
chain: EVQLVESGGGLVQPGGSLRLSCAASGFNIKDYYIHWVRQAPGKGLEWVAWIDPEYGDSEFVPKFQGRATMSADTSKNTAYLQMNSLRAEDTAVYYCKTGGFWGRGTLVTVSSGGGGSGGGGSGGSAQDIQLTQSPSSLSASVGDRVTITCSASSSVRFIHWYQQKPGKAPKRLIYDTSKLASGVPSRFSGSGSGTDFTLTISSLQPEDFATYYCQQWGSSPFTFGQGTKVEIKVECPPCPAPPVAGPSVFLFPPKPKDTLMISRTPEVTCVVVDVSHEDPEVQFNWYVDGMEVHNAKTKPREEQFNSTFRVVSVLTVVHQDWLNGKEYKCKVSNKGLPAPIEKTISKTKGQPREPQVYTLPPSREEMTKNQVSLTCLVKGFYPSDIAVEWESNGQPENNYKTTPPMLDSDGSFFLYSKLTVDKSRWQQGNVFSCSVMHEALHNHYTQKSLSLSPGK
notes: also called A2Fc2
Kd [4]: 0.5 nM
